Assay results taken from publication PMC2926597.

Biological target: T1, KSRP KH23 (KH2-KH3 di-domain) (Homo sapiens, UniProt Q92945 233-418)
T1 sequence: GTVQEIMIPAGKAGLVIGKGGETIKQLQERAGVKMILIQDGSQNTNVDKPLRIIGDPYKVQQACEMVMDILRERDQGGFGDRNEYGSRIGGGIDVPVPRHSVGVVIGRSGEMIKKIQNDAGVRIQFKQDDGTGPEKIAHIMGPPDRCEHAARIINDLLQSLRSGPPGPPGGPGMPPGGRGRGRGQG
Assay: CD titration

Q: Which Kd does the source give for UAUUUAUUAUUU (ssRNA) [TNFa ARE AU-12mer] here?
A: 1000 ± 100 nM
